Key:
Test in all cases: cell-based or functional assay
[1] = target: T1, human CLDN3 E153A mutant on RKO KO cells (human, UniProt O15551 1-220)
T1 construct: Single-point alanine mutant, monoclonal RKO KO line with GFP
T1 chain: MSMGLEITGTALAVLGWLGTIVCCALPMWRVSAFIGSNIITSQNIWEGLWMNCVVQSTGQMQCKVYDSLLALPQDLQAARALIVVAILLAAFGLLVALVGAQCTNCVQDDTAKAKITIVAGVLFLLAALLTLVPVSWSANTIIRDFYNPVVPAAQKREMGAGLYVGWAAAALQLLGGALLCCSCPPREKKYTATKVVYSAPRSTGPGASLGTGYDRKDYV

[2] = target: T2, human CLDN3 N38A mutant on RKO KO cells (human, UniProt O15551 1-220)
T2 construct: Single-point alanine mutant, monoclonal RKO KO line with GFP
T2 chain: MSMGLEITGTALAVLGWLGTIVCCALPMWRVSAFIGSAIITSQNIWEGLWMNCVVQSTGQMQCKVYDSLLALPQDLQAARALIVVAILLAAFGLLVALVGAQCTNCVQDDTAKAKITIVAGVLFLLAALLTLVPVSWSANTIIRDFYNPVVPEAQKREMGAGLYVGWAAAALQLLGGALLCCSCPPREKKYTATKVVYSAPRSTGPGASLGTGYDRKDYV

[3] = target: human CLDN3 F34A mutant on RKO KO cells (human) (UniProt O15551)
[4] = target: human CLDN3 I39A mutant on RKO KO cells (human) (UniProt O15551)
[5] = target: human CLDN3 I45A mutant on RKO KO cells (human) (UniProt O15551)
[6] = target: human CLDN3 K156A mutant on RKO KO cells (human) (UniProt O15551)
[7] = target: human CLDN3 N148A mutant on RKO KO cells (human) (UniProt O15551)
[8] = target: human CLDN3 P149A mutant on RKO KO cells (human) (UniProt O15551)
[9] = target: human CLDN3 P152A mutant on RKO KO cells (human) (UniProt O15551)
[10] = target: human CLDN3 Q155A mutant on RKO KO cells (human) (UniProt O15551)
[11] = target: human CLDN3 Q43A mutant on RKO KO cells (human) (UniProt O15551)
[12] = target: human CLDN3 R157A mutant on RKO KO cells (human) (UniProt O15551)
[13] = target: human CLDN3 S42A mutant on RKO KO cells (human) (UniProt O15551)
[14] = target: human CLDN3 V150A mutant on RKO KO cells (human) (UniProt O15551)
[15] = target: human CLDN3 with C-terminal monomeric GFP tag on RKO-KO cells (human) (UniProt O15551)
[16] = target: human CLDN4 with C-terminal monomeric GFP tag on RKO-KO cells (human) (UniProt O14493)
Chain of human CLDN4 with C-terminal monomeric GFP tag on RKO-KO cells (human) (O14493 whole entry): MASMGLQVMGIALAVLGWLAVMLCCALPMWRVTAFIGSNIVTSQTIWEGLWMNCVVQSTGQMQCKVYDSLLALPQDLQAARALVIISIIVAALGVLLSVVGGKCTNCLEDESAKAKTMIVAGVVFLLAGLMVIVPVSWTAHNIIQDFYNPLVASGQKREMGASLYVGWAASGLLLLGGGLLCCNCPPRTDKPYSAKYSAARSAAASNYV

[17] = target: T3, human CLDN6 with C-terminal monomeric GFP tag on RKO-KO cells (human) (UniProt P56747)
T3 sequence (looked up): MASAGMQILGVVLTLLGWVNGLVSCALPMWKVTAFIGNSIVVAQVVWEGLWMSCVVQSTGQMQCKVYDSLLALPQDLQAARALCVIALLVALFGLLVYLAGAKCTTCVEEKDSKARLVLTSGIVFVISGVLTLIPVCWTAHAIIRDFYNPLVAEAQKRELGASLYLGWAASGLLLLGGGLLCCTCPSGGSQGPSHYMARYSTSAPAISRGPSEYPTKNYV

[18] = target: human CLDN9 with C-terminal monomeric GFP tag on RKO-KO cells (human) (UniProt O95484)
Chain of human CLDN9 with C-terminal monomeric GFP tag on RKO-KO cells (human) (O95484 whole entry): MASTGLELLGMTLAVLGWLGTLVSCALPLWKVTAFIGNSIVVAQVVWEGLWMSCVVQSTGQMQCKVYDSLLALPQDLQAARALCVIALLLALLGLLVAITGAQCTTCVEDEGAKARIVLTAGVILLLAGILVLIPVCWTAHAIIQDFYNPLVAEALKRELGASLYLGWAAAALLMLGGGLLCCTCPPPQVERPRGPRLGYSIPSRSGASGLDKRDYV

[19] = target: mouse CLDN3 with C-terminal monomeric GFP tag on RKO-KO cells (mouse) (UniProt Q9Z0G9)
Chain of mouse CLDN3 with C-terminal monomeric GFP tag on RKO-KO cells (mouse) (Q9Z0G9 whole entry): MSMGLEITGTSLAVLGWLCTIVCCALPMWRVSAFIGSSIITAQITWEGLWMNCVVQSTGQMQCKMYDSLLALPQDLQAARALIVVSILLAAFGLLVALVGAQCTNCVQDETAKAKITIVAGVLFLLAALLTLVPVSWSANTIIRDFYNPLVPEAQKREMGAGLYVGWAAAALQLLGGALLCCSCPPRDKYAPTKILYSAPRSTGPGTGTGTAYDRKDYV

B1: 906-009_LNGFR anti-claudin-3 chimeric antigen receptor (scFv orientation L-H, short hCD8 spacer), on T cells (protein, part only; not given: linker, spacer and signaling domains, not shown: large carriers)
chain, part: DIQMTQSPSSLSASVGDRVTITCKASQDINRYIAWYQQKPGKAPKLLIHYTSTLQPGVPSRFSGSGSGTDFTLTISSLQPEDFATYYCLQYETLYSFGQGTKLEIKQVQLVQSGAEVKKPGSSVKVSCKASGYTFTNYWVHWVRQAPGQGLEWMGRIEPNSSGSQYNEKFKNRVTITADKSTSTAYMELSSLRSEDTAVYYCARGVMVPLDYWGQGTLVTVSS
- IFNγ as % of IFNγ in CLDN3 WT (24 h co-culture, normalised to untransduced T cells) [1]: 3.56%
- IFNγ as % of IFNγ in CLDN3 WT (24 h co-culture, normalised to untransduced T cells) [2]: 0.11%
- IFNγ as % of IFNγ in CLDN3 WT (24 h co-culture, normalised to untransduced T cells) [3]: 79.7%
- IFNγ as % of IFNγ in CLDN3 WT (24 h co-culture, normalised to untransduced T cells) [4]: 71.5%
- IFNγ as % of IFNγ in CLDN3 WT (24 h co-culture, normalised to untransduced T cells) [5]: 66.1%
- IFNγ as % of IFNγ in CLDN3 WT (24 h co-culture, normalised to untransduced T cells) [6]: 101%
- IFNγ as % of IFNγ in CLDN3 WT (24 h co-culture, normalised to untransduced T cells) [7]: 104%
- IFNγ as % of IFNγ in CLDN3 WT (24 h co-culture, normalised to untransduced T cells) [8]: 95.5%
- IFNγ as % of IFNγ in CLDN3 WT (24 h co-culture, normalised to untransduced T cells) [9]: 61.6%
- IFNγ as % of IFNγ in CLDN3 WT (24 h co-culture, normalised to untransduced T cells) [10]: 86.3%
- IFNγ as % of IFNγ in CLDN3 WT (24 h co-culture, normalised to untransduced T cells) [11]: 72.8%
- IFNγ as % of IFNγ in CLDN3 WT (24 h co-culture, normalised to untransduced T cells) [12]: 107%
- IFNγ as % of IFNγ in CLDN3 WT (24 h co-culture, normalised to untransduced T cells) [13]: 95.2%
- IFNγ as % of IFNγ in CLDN3 WT (24 h co-culture, normalised to untransduced T cells) [14]: 91.3%
- % Live Cells at Assay Endpoint (40 hrs, donor 92024) [15]: 16.3%
- % Live Cells at Assay Endpoint (70 hrs, donor D5) [15]: 0%
- % Live Cells at Assay Endpoint (90 hrs, donor 0372470; RKO KO hCLDN3 L14) [15]: -6%
- % Live Cells at Assay Endpoint (96 hrs, donor C1700979; RKO KO hCLDN3 L14) [15]: 29%
- % Live Cells at Assay Endpoint (96 hrs, donor C1700980; RKO KO hCLDN3 L14) [15]: 57.3%
- % Live Cells at Assay Endpoint (120 hrs, donor 0372470) [15]: 20.3%
- IFNγ secretion fold change, anti-claudin-3 CAR-T cells vs anti-CD19 CAR-T cells [15]: 2500 fold
- IFNγ secretion fold change, anti-claudin-3 CAR-T cells vs untransduced T cells [15]: 1350 fold
- % Live Cells at Assay Endpoint (90 hrs, donor 0372470) [16]: 94.7%
- % Live Cells at Assay Endpoint (120 hrs, donor 0372470) [16]: 90.7%
- IFNγ secretion fold change, anti-claudin-3 CAR-T cells vs anti-CD19 CAR-T cells [16]: 25.1 fold
- IFNγ secretion fold change, anti-claudin-3 CAR-T cells vs untransduced T cells [16]: 29.2 fold
- % Live Cells at Assay Endpoint (40 hrs, donor 92024) [17]: 96.3%
- % Live Cells at Assay Endpoint (96 hrs, donor C1700979) [17]: 96%
- % Live Cells at Assay Endpoint (96 hrs, donor C1700980) [17]: 100%
- IFNγ secretion fold change, anti-claudin-3 CAR-T cells vs anti-CD19 CAR-T cells [17]: 10.9 fold
- IFNγ secretion fold change, anti-claudin-3 CAR-T cells vs untransduced T cells [17]: 2.59 fold
- % Live Cells at Assay Endpoint (40 hrs, donor 92024) [18]: 96.7%
- % Live Cells at Assay Endpoint (70 hrs, donor D5) [18]: 96.3%
- % Live Cells at Assay Endpoint (96 hrs, donor C1700979) [18]: 92.7%
- % Live Cells at Assay Endpoint (96 hrs, donor C1700980) [18]: 101%
- IFNγ secretion fold change, anti-claudin-3 CAR-T cells vs anti-CD19 CAR-T cells [18]: 14.3 fold
- IFNγ secretion fold change, anti-claudin-3 CAR-T cells vs untransduced T cells [18]: 11.3 fold
- % Live Cells at Assay Endpoint (40 hrs, donor 92024) [19]: 89%
- % Live Cells at Assay Endpoint (70 hrs, donor D5) [19]: 97.7%
- % Live Cells at Assay Endpoint (90 hrs, donor 0372470) [19]: 94.5%
- % Live Cells at Assay Endpoint (96 hrs, donor C1700979) [19]: 71%
- % Live Cells at Assay Endpoint (96 hrs, donor C1700980) [19]: 86%
- % Live Cells at Assay Endpoint (120 hrs, donor 0372470) [19]: 81.7%
- IFNγ secretion fold change, anti-claudin-3 CAR-T cells vs anti-CD19 CAR-T cells [19]: 439 fold
- IFNγ secretion fold change, anti-claudin-3 CAR-T cells vs untransduced T cells [19]: 521 fold
